± gives the uncertainty stated by the source.

A short description of this data set: amyloid nucleation score (Sup35N fusion, yeast selection) (log enrichment); library NNK3; higher = more nucleation; inactive = no reads after selection. Put shortly:
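Libraries of peptides of 20 random codons fused to Sup35N were expressed in psi-negative yeast and induced 24 hours with 100 μM copper sulfate. Selection was 7 days at 30°C on medium lacking adenine and uracil, and plasmid inserts were Illumina-sequenced before and after selection. Nucleation score is the DiMSum log enrichment of output over input reads, centred on the mode score of non-aggregating sequences, and sequences with under 100 input reads were left out.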
In the case of YCKEGLQQDPIFSKFYEHLG, the amyloid nucleation score entry is “inactive”.

In the case of HVSAARMFSSYDPRKPGENM, the amyloid nucleation score result was “inactive”.

The substance YTWYCFCRC returned an amyloid nucleation score of 2.44 ± 0.055.

Consider WCQDATMYNPSYY, for which the amyloid nucleation score result is “inactive”.

For the substance SSSMCYRCDLSMFLGSGRSG, the amyloid nucleation score result is “inactive”.

For the substance ILVFR, the amyloid nucleation score entry is “inactive”.

For the substance INAQS, the amyloid nucleation score entry was “inactive”.

Regarding GAFSWCSRVVDMVRLTRCDH, the amyloid nucleation score entry was “inactive”.

With IIFDR, the amyloid nucleation score entry was “inactive”.

Regarding DVTRTCRYGEVYDWTIKIRP, the amyloid nucleation score entry was “inactive”.

Regarding APIKIRFD, the amyloid nucleation score result was “inactive”.

Turning to LNWSKEAWCSYNILLNYGGW, the amyloid nucleation score entry is “inactive”.

Substance INGDMFSSFENVCYYEVSSL yielded an amyloid nucleation score of -0.325 ± 0.3.

ELLVVFEESIVINFLDANIW displayed an amyloid nucleation score of 0.674 ± 0.2.

The substance MLMVLRGRSRDNNVQSLLFA returned an amyloid nucleation score of -0.292 ± 1.2.

In the case of HRRIPL, the amyloid nucleation score entry is “inactive”.

As to HEYECGWIGVVFTMILMSLS, the amyloid nucleation score entry is “inactive”.

Turning to FWNRWVVQVDSLSMRMSRVA, the amyloid nucleation score result is “inactive”.

In the case of NDQKIPLARYLG, the amyloid nucleation score entry is “inactive”.

SMDNFL: the amyloid nucleation score result was “inactive”.

As for YAIVGSRVVRLRSKNRRNLS, the amyloid nucleation score result was “inactive”.

FVYTDVCSQFFRMGHFDTSY gave an amyloid nucleation score of -0.21 ± 0.7.

For KIQSSTNLPFGASL, the amyloid nucleation score entry was “inactive”.

On to QRNMVSEGATRCLSTDFPCL, for which the amyloid nucleation score result was “inactive”.

As to DTYFTVCSLWGPV, the amyloid nucleation score was 0.999 ± 0.12.

For CGEYMRCLNVEYRCVGVKGS, the amyloid nucleation score entry was “inactive”.

As to TFRFLSRLSRTLWAFSKGLC, the amyloid nucleation score entry was “inactive”.

With LLKVVD, the amyloid nucleation score entry is “inactive”.

INFVYSHM: the amyloid nucleation score was 1.75 ± 0.12.

As for SVQLGIKNVITLRSYVYKTW, the amyloid nucleation score is -0.208 ± 0.6.

Take NDWRCKEVTSSDIWAFVYCS: the amyloid nucleation score was 0.967 ± 0.12.

Take TYFRHYRKRSRSTSDLYLRL: the amyloid nucleation score entry is “inactive”.

In turn, TTSRNRIGRGLCGLAS came in with an amyloid nucleation score of -0.115 ± 0.48.

LLDYRPKTGNCRVQIRLCVV: the amyloid nucleation score result is “inactive”.

As to AKCMSDFVECRKSRRMMAGW, the amyloid nucleation score result was “inactive”.

Take ILVGNFSILWY: the amyloid nucleation score entry is “inactive”.

Take LIINIHDRLLVRVPLWDWLR: the amyloid nucleation score entry is “inactive”.

Regarding LMSFCHPDPIDFSVTGLCCR, the amyloid nucleation score was -0.208 ± 0.39.

TAFNHRMPGDLWRDDGGARV showed an amyloid nucleation score of 0.784 ± 0.24.

Consider NYVVRGRSQNVRNSEDNWGK, for which the amyloid nucleation score entry was “inactive”.

As to RLIIYSFARSQL, the amyloid nucleation score result was “inactive”.

Regarding RLGWFYRNIYLLTVEVGRGR, the amyloid nucleation score entry is “inactive”.

In the case of VTRQLYVMGFVGHDEEGVVS, the amyloid nucleation score result was “inactive”.

Turning to RFEYMGNVMES, the amyloid nucleation score result is “inactive”.

For QARRSIYSISECGGGI, the amyloid nucleation score was determined as 0.234 ± 0.33.

In turn, YHCSLQIFVLNSWMSSYKWS yielded an amyloid nucleation score of 1.86 ± 0.098.

For the substance VGWNQDGDHMKSLKVAWARW, the amyloid nucleation score result is “inactive”.

Consider FSLLPKCLSLSGDRNGFKMC, for which the amyloid nucleation score result is “inactive”.

On to GTKWSATITGWV, for which the amyloid nucleation score entry is “inactive”.

Consider RSSSIYYICFQTFTRCNYPV, for which the amyloid nucleation score entry was “inactive”.

In turn, IVSKMAVYMAGTSALVLPLL showed an amyloid nucleation score of -0.086 ± 0.88.

Turning to SRGLYKYLGLRFFMYGRVLR, the amyloid nucleation score entry is “inactive”.

In the case of ALMMRLFFRIRSTMCCWVCS, the amyloid nucleation score result was “inactive”.

Turning to MYGEMYCRFCVVVVGWLQFV, the amyloid nucleation score result is “inactive”.

SFLSWMVFANFKRVHPGWVP: the amyloid nucleation score result is “inactive”.

With MPFIPHLDGS, the amyloid nucleation score entry was “inactive”.

For LNGIEGSGY, the amyloid nucleation score result is “inactive”.

On to YCWYRQMDNSRGGYYMWVS, for which the amyloid nucleation score entry was “inactive”.

Take GYSKNI: the amyloid nucleation score result was “inactive”.

Regarding IPSVFKLSVWGYADSTCLRR, the amyloid nucleation score result was “inactive”.

Take YGNLFSYAVMSRDLVSWGPV: the amyloid nucleation score result is “inactive”.

For the substance LFIRP, the amyloid nucleation score entry was “inactive”.

On to RWSVCSCYSWERSGSRSQ, for which the amyloid nucleation score result was “inactive”.

In the case of HNASGCWWDSALPITFRRLG, the amyloid nucleation score result was “inactive”.

With VRNYGLDFRRACGWT, the amyloid nucleation score entry was “inactive”.

In the case of TLLTMTDFAIKFSHKQPGYV, the amyloid nucleation score result was “inactive”.

In the case of TAALRIDDQRKAYLGVPRFS, the amyloid nucleation score entry was “inactive”.

Consider LRRQSVMWDKSYAGTWILES, for which the amyloid nucleation score result was “inactive”.

Consider ELNMAVDAVYCTGSVHKIVF, for which the amyloid nucleation score was 1.36 ± 0.13.

Turning to NIAIGLYRFKMLDGKRSCML, the amyloid nucleation score entry was “inactive”.

With YNNVCSEAEWS, the amyloid nucleation score result is “inactive”.

Substance IYMFVHIK gave an amyloid nucleation score of 1.68 ± 0.086.

For the substance ICPSNFWMFCSCYWSMLRNF, the amyloid nucleation score result was “inactive”.

As to TSLLILRCSGE, the amyloid nucleation score entry is “inactive”.

Turning to FCEGYFWCVI, the amyloid nucleation score entry is “inactive”.

For the substance FLRFSAVDVSNGGNSMLL, the amyloid nucleation score result is “inactive”.

Regarding EAGSVSYWFVATRPLKRACP, the amyloid nucleation score result is “inactive”.

In the case of SGCYNYFCGFLLKYSMYVSL, the amyloid nucleation score result was “inactive”.

With RSWQEMFCEWSSALDWDWSV, the amyloid nucleation score entry is “inactive”.

Regarding IYGLPRYFVGYGFFKSYVRL, the amyloid nucleation score result is “inactive”.

On to GLMLDFILYQWTWYKLSMDT, for which the amyloid nucleation score entry is “inactive”.

As for RFDWRLSCTGRNMVASLLFV, the amyloid nucleation score result is “inactive”.

For the substance ECENMHDTKDLGLTDGVYII, the amyloid nucleation score result was “inactive”.

Consider YTVILRVRGSMSAMQSMKFS, for which the amyloid nucleation score result is “inactive”.

With STVYSRHIKTDLTNCCKFFY, the amyloid nucleation score was -0.657 ± 0.98.

For the substance WVCTYLTRFGRITGALRMDV, the amyloid nucleation score result was “inactive”.

Consider PMHGGTSSQSYNNLLRRSVK, for which the amyloid nucleation score entry was “inactive”.

Turning to SYLESISHPALESARVYVST, the amyloid nucleation score entry was “inactive”.

For the substance NPSQSRSASWQHSYHRISGL, the amyloid nucleation score entry is “inactive”.

LLVKSYNLYIMFSPHL yielded an amyloid nucleation score of 1.68 ± 0.078.

Turning to RHVFFLC, the amyloid nucleation score result is “inactive”.

On to SCMVNMSPVGWDSAGGEQGV, for which the amyloid nucleation score entry was “inactive”.

Consider NYLNTVPVPGGPMVCMQHRI, for which the amyloid nucleation score result was “inactive”.

On to LRAEVLSSYVTWVHAEGPHC, for which the amyloid nucleation score entry is “inactive”.

Take TVTHLFGHRVGMSLVFNSTY: the amyloid nucleation score entry is “inactive”.

For ARFLYAVVLRWFIMEYRAGT, the amyloid nucleation score result was “inactive”.

Regarding LSELYHTFYSVVNGGHVLMI, the amyloid nucleation score entry is “inactive”.

With RWLPMSNVAGGQKRKMLASL, the amyloid nucleation score result is “inactive”.

Turning to CVVIFICPQKG, the amyloid nucleation score amounted to 0.811 ± 0.26.

As to CDTFVVNMSQFLSISTMAER, the amyloid nucleation score is 0.66 ± 0.17.

In the case of QRISMIALDRFD, the amyloid nucleation score entry is “inactive”.

In turn, MWVPYSAFRMDQEFGFYGIT registered an amyloid nucleation score of 0.057 ± 0.24.

With SQGLYVGPVAPSGTVRRVWM, the amyloid nucleation score result is “inactive”.

For the substance NVYVSSRVYISK, the amyloid nucleation score was 2.88 ± 0.06.

For AVSSVLIHALYLVGMLPPSN, the amyloid nucleation score is 1.83 ± 0.092.

In the case of RSDENWRMTYWRAGCRVLDV, the amyloid nucleation score entry was “inactive”.

RRPVRSSNGALTLICRDREF: the amyloid nucleation score entry was “inactive”.

WTFNLFFNFRTFRLCCRKLV: the amyloid nucleation score was found to be 0.938 ± 0.096.

As to AANLGRSIPESSRKGIGFNF, the amyloid nucleation score entry is “inactive”.

The substance NMCDNMQQIMVSGYVVVWVY gave an amyloid nucleation score of 1.19 ± 0.15.

Take LNVVKNYIGLVRRHIIRVHF: the amyloid nucleation score result was “inactive”.

Turning to IDVKSLSWKMYRRLGTIPYT, the amyloid nucleation score was -0.317 ± 0.93.

TPVMRSVNMMVLKTI: the amyloid nucleation score result is “inactive”.

For the substance KRLFVTFFLSSLRGNILMWG, the amyloid nucleation score entry is “inactive”.

For GVYMLLDVPYGTASTSAMGS, the amyloid nucleation score result is “inactive”.

Consider RLGCCGVSSEWVCRKYLLRG, for which the amyloid nucleation score result is “inactive”.

FITTCRILWVRCTGIVNDFL: the amyloid nucleation score result is “inactive”.

In turn, SHVSQMWSGYAGNKEEPTAW returned an amyloid nucleation score of 0.928 ± 0.19.

As for ENVLVVRMDRVLY, the amyloid nucleation score entry is “inactive”.

On to MSVDGLHCRWPSWHVKILLD, for which the amyloid nucleation score entry was “inactive”.

GGSLYACRGTLRLSNTNVKA: the amyloid nucleation score entry is “inactive”.

MGHDHHWSGSDMGS: the amyloid nucleation score entry was “inactive”.

Consider YIYICLVFMSRCTKLYIELG, for which the amyloid nucleation score entry is “inactive”.

With MECELHTDGRSVACRHT, the amyloid nucleation score entry is “inactive”.

With DSSKVGFSALVNVSTIA, the amyloid nucleation score result was “inactive”.

For SVRYTV, the amyloid nucleation score result was “inactive”.

As for LVKLCIFGLRDGYTVFEYMG, the amyloid nucleation score result was “inactive”.

Take RDSCFNIDFKEEVVRKVSMA: the amyloid nucleation score worked out at 0.827 ± 0.18.

As for FFSAPMNEVKTGTILKGFVC, the amyloid nucleation score result is “inactive”.

Take EMLYTLIIVYLVNMYFCTQS: the amyloid nucleation score result was “inactive”.

(Values after the supplement of paper PMC12042874.)
